This test deals with T1, human KLRB1 protein extracellular domain (ECD) (human, UniProt Q12918 67-225).
T1 construct: range 67-225; The ELISA and SPR text says only 'human KLRB1 ECD'; also called human KLRB1 ECD; CD161
T1 sequence (looked up): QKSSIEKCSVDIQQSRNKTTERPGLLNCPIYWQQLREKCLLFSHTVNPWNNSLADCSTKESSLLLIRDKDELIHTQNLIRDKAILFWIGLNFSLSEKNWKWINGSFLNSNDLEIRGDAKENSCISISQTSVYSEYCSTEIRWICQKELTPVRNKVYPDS
Kind of test: SPR, human KLRB1 ECD; format not stated. How it is done: The chimeric antibody 10A3D6-hIgGlk (a mouse/human chimeric antibody with 10A3D6 variable regions and human IgG1-kappa constant regions), chimeric mutated variants (10A3D6C109S, 10A3D6C109F, and 10A3D6C109V), and humanized variants of 10A3D6 created by CDR grafting (Almagro et al. 2008) were assayed for binding against human KLRB1 extracellular domain (ECD) via surface plasma resonance (SPR).
(In SPR one partner is held on a chip, and binding of the other changes the refractive index at the surface.)

Here are results for twelve molecules from patent US20250270328A1 (BRIGHAM AND WOMEN S HOSPITAL, published 2025).

As usually defined, the Kd is the equilibrium constant for the complex coming apart. Low readings indicate a tighter complex, high ones a looser complex. By koff is commonly meant the first-order rate constant of dissociation. Low values mean a long-lived complex, high ones a short-lived complex. One may read the kon as the second-order rate constant of association. A high value points to fast association.

B1: 10A3D6C109S-chimeric (antibody, human IgG1, V domains shown)
VH: EVQLQQSGPELVKPGASMKISCKASGYSFTGYTMNWVKQSHGKNLEWIGLINPNTGGTYYNQKFKDKATLTVDKSSSTAYMELLSLTSEDSAVYYCARLGDNYRGYFDSWGQGTTLTVSS
VL: DIVMTQSHKFMSTSVGDRVNITCKASQDVGTAVVWYQQTPGQSPKVLIDWASIRHTGVPDRFTGSGSGTDFTLTISSVQSEDLADYFCQQYSTYLYTFGGGTKLEIK
notes: Chimeric mutated variant; the name hIgG1k indicates human IgG1 kappa constant regions; also called 10A3D6C109ShIgG1k
As for B1, the Kd turned out to be 0.0511 nM, the koff is 0.000303 s⁻¹ and the kon is 5.93e+06 M⁻¹ s⁻¹.

B2: 10A3D6C109V-chimeric (antibody, human IgG1, V domains shown)
VH: EVQLQQSGPELVKPGASMKISCKASGYSFTGYTMNWVKQSHGKNLEWIGLINPNTGGTYYNQKFKDKATLTVDKSSSTAYMELLSLTSEDSAVYYCARLGDNYRGYFDVWGQGTTLTVSS
VL: DIVMTQSHKFMSTSVGDRVNITCKASQDVGTAVVWYQQTPGQSPKVLIDWASIRHTGVPDRFTGSGSGTDFTLTISSVQSEDLADYFCQQYSTYLYTFGGGTKLEIK
notes: Chimeric mutated variant; the name hIgG1k indicates human IgG1 kappa constant regions; also called 10A3D6C109VhIgG1k
The molecule B2 displayed a Kd of 0.0436 nM, a koff of 0.000293 s⁻¹ and an association rate constant (kon) of 6.72e+06 M⁻¹ s⁻¹.

B3: 10A3D6C109F-chimeric (antibody, human IgG1, V domains shown)
VH: EVQLQQSGPELVKPGASMKISCKASGYSFTGYTMNWVKQSHGKNLEWIGLINPNTGGTYYNQKFKDKATLTVDKSSSTAYMELLSLTSEDSAVYYCARLGDNYRGYFDFWGQGTTLTVSS
VL: DIVMTQSHKFMSTSVGDRVNITCKASQDVGTAVVWYQQTPGQSPKVLIDWASIRHTGVPDRFTGSGSGTDFTLTISSVQSEDLADYFCQQYSTYLYTFGGGTKLEIK
notes: Chimeric mutated variant; the name hIgG1k indicates human IgG1 kappa constant regions; also called 10A3D6C109FhIgG1k
Turning to B3, the Kd worked out at 0.0627 nM, the koff is 0.000336 s⁻¹ and the kon was 5.36e+06 M⁻¹ s⁻¹.

B4: 10A3D6 (murine monoclonal antibody) (antibody, mouse IgG1)
heavy: EVQLQQSGPELVKPGASMKISCKASGYSFTGYTMNWVKQSHGKNLEWIGLINPNTGGTYYNQKFKDKATLTVDKSSSTAYMELLSLTSEDSAVYYCARLGDNYRGYFDCWGQGTTLTVSSAKTTPPSVYPLAPGSAAQTNSMVTLGCLVKGYFPEPVTVTWNSGSLSSGVHTFPAVLQSDLYTLSSSVTVPSSPRPSETVTCNVAHPASSTKVDKKIVPRDCGCKPCICTVPEVSSVFIFPPKPKDVLTITLTPKVTCVVVDISKDDPEVQFSWFVDDVEVHTAQTQPREEQFNSTFRSVSELPIMHQDWLNGKEFKCRVNSAAFPAPIEKTISKTKGRPKAPQVYTIPPPKEQMAKDKVSLTCMITDFFPEDITVEWQWNGQPAENYKNTQPIMNTNGSYFVYSKLNVQKSNWEAGNTFTCSVLHEGLHNHHTEKSLSHSPGK
light: DIVMTQSHKFMSTSVGDRVNITCKASQDVGTAVVWYQQTPGQSPKVLIDWASIRHTGVPDRFTGSGSGTDFTLTISSVQSEDLADYFCQQYSTYLYTFGGGTKLEIKRADAAPTVSIFPPSSEQLTSGGASVVCFLNNFYPKDINVKWKIDGSERQNGVLNSWTDQDSKDSTYSMSSTLTLTKDEYERHNSYTCEATHKTSTSPIVKSFNRNEC
notes: copies: 2 + 2
B4 had a Kd of 0.259 nM, an off-rate constant (koff) of 0.000123 s⁻¹ and a kon of 475000 M⁻¹ s⁻¹.

B5: 10A3D6C109Chum2.2 (antibody, V domains shown)
VH: QVQLVQSGAEVKKPGASVKVSCKASGYSFTGYTMNWVRQAPGQNLEWIGLINPNTGGTYYNQKFKDRVTLTVDTSISTAYMELSRLRSDDTAVYYCARLGDNYRGYFDCWGQGTTVTVSS
VL: DIQLTQSPSFLSASVGDRVTITCKASQDVGTAVVWYQQKPGKAPKLLIDWASIRHTGVPSRFSGSGSGTEFTLTISSLQPEDFADYFCQQYSTYLYTFGGGTKLEIK
notes: Humanized variant of 10A3D6 made by CDR grafting
The molecule B5 displayed a Kd of 0.106 nM, a koff of 9.54e-05 s⁻¹ and a kon of 903000 M⁻¹ s⁻¹.

B6: 10A3D6C109Chum1.3 (antibody, V domains shown)
VH: QVQLVQSGAEVKKPGASVKVSCKASGYSFTGYTMNWVRQAPGQGLEWMGLINPNTGGTYYNQKFKDRVTMTRDTSISTAYMELSRLRSDDTAVYYCARLGDNYRGYFDCWGQGTTVTVSS
VL: DIQLTQSPSFLSASVGDRVTITCKASQDVGTAVVWYQQTPGKAPKLLIDWASIRHTGVPSRFSGSGSGTEFTLTISSLQPEDFADYFCQQYSTYLYTFGGGTKLEIK
notes: as for B5
Regarding B6, the Kd was found to be 0.1 nM, the off-rate constant (koff) came to 0.0001 s⁻¹ and the kon is 999000 M⁻¹ s⁻¹.

B7: 10A3D6C109Chum1.2 (antibody, V domains shown)
VH: QVQLVQSGAEVKKPGASVKVSCKASGYSFTGYTMNWVRQAPGQGLEWMGLINPNTGGTYYNQKFKDRVTMTRDTSISTAYMELSRLRSDDTAVYYCARLGDNYRGYFDCWGQGTTVTVSS
VL: DIQLTQSPSFLSASVGDRVTITCKASQDVGTAVVWYQQKPGKAPKLLIDWASIRHTGVPSRFSGSGSGTEFTLTISSLQPEDFADYFCQQYSTYLYTFGGGTKLEIK
notes: as for B5
Molecule B7 came in with a Kd of 0.0932 nM, a koff of 9.35e-05 s⁻¹ and a kon of 1e+06 M⁻¹ s⁻¹.

B8: 10A3D6C109Chum2.3 (antibody, V domains shown)
VH: QVQLVQSGAEVKKPGASVKVSCKASGYSFTGYTMNWVRQAPGQNLEWIGLINPNTGGTYYNQKFKDRVTLTVDTSISTAYMELSRLRSDDTAVYYCARLGDNYRGYFDCWGQGTTVTVSS
VL: DIQLTQSPSFLSASVGDRVTITCKASQDVGTAVVWYQQTPGKAPKLLIDWASIRHTGVPSRFSGSGSGTEFTLTISSLQPEDFADYFCQQYSTYLYTFGGGTKLEIK
notes: as for B5
As to B8, the Kd worked out at 0.0985 nM, the off-rate (koff) came out at 9.41e-05 s⁻¹ and the association rate constant (kon) was determined as 955000 M⁻¹ s⁻¹.

B9: 10A3D6C109Chum1.1 (antibody, V domains shown)
VH: QVQLVQSGAEVKKPGASVKVSCKASGYSFTGYTMNWVRQAPGQGLEWMGLINPNTGGTYYNQKFKDRVTMTRDTSISTAYMELSRLRSDDTAVYYCARLGDNYRGYFDCWGQGTTVTVSS
VL: DIQLTQSPSFLSASVGDRVTITCKASQDVGTAVVWYQQKPGKAPKLLIYWASIRHTGVPSRFSGSGSGTEFTLTISSLQPEDFATYYCQQYSTYLYTFGGGTKLEIK
notes: as for B5
The molecule B9 gave a Kd of 9.42 nM, a koff of 0.00296 s⁻¹ and a kon of 314000 M⁻¹ s⁻¹.

B10: 10A3D6C109Chum1.4 (antibody, V domains shown)
VH: QVQLVQSGAEVKKPGASVKVSCKASGYSFTGYTMNWVRQAPGQGLEWMGLINPNTGGTYYNQKFKDRVTMTRDTSISTAYMELSRLRSDDTAVYYCARLGDNYRGYFDCWGQGTTVTVSS
VL: DIQLTQSPSFLSASVGDRVTITCKASQDVGTAVVWYQQTPGKAPKLLIDWASIRHTGVPDRFSGSGSGTEFTLTISSLQPEDFADYFCQQYSTYLYTFGGGTKLEIK
notes: as for B5
In the case of B10, the Kd is 0.0717 nM, the koff is 8.6e-05 s⁻¹ and the kon stood at 1.2e+06 M⁻¹ s⁻¹.

B11: 10A3D6C109Chum2.4 (antibody, V domains shown)
VH: QVQLVQSGAEVKKPGASVKVSCKASGYSFTGYTMNWVRQAPGQNLEWIGLINPNTGGTYYNQKFKDRVTLTVDTSISTAYMELSRLRSDDTAVYYCARLGDNYRGYFDCWGQGTTVTVSS
VL: DIQLTQSPSFLSASVGDRVTITCKASQDVGTAVVWYQQTPGKAPKLLIDWASIRHTGVPDRFSGSGSGTEFTLTISSLQPEDFADYFCQQYSTYLYTFGGGTKLEIK
notes: as for B5
For B11, binding was put at a Kd of 0.0976 nM, the koff was found to be 9.68e-05 s⁻¹ and the kon was determined as 992000 M⁻¹ s⁻¹.

B12: 10A3D6C109Chum2.1 (antibody, V domains shown)
VH: QVQLVQSGAEVKKPGASVKVSCKASGYSFTGYTMNWVRQAPGQNLEWIGLINPNTGGTYYNQKFKDRVTLTVDTSISTAYMELSRLRSDDTAVYYCARLGDNYRGYFDCWGQGTTVTVSS
VL: DIQLTQSPSFLSASVGDRVTITCKASQDVGTAVVWYQQKPGKAPKLLIYWASIRHTGVPSRFSGSGSGTEFTLTISSLQPEDFATYYCQQYSTYLYTFGGGTKLEIK
notes: as for B5
Molecule B12 displayed a Kd of 12.9 nM, a koff of 0.00408 s⁻¹ and a kon of 315000 M⁻¹ s⁻¹.
